# Data taken from article PMC11446229, “CyaY and TusA regulate ISC- and SUF-mediated L-cysteine desulfurase activity†” (RSC Chemical Biology, 2024).
# T1: SufSE complex (SufS dimer with bound SufE), formed before CyaY was added (E. coli, UniProt P77444 1-406; P76194 1-138)
# T1 construct: SufS, L-cysteine desulfurase of E. coli, as the chain of m4; SufE of E. coli, as the chain of m5; A mixture of complexes: mainly one or two SufE on each SufS dimer, with some (SufE)3(SufS)2 before CyaY was added; In the activity assay 30 uM SufS plus 90 uM SufE; also called SufE–SufS complexes; SufS/SufE; source: mixed from SufS and SufE, each purified from E. coli BL21 DE3; copies: 2 +
# T1 sequence (looked up) 1: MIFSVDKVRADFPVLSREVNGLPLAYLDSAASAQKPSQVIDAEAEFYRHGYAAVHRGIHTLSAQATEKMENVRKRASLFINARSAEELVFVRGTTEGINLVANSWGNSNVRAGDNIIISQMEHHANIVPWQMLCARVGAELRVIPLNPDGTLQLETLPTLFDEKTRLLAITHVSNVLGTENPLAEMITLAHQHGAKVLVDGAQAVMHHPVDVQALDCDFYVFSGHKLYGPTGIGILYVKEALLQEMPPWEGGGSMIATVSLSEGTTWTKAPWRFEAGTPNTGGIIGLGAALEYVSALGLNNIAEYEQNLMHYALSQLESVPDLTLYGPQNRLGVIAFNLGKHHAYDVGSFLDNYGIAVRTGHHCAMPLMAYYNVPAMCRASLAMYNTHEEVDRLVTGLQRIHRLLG
# T1 sequence (looked up) 2: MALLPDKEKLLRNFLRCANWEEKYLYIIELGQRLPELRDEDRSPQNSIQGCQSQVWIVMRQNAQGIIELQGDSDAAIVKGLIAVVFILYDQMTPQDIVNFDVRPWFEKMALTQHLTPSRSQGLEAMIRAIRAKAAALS
# B1: SufE (natural protein, E. coli, UniProt P76194 1-138, looked up)
# chain: T1 sequence (looked up) 2
# notes: SufE, sulfur acceptor of SufS, E. coli; Tag cleavage is told only of SufS and CyaY; Surmise: the printed mass interval of ~16.7 kDa for each SufE is larger than the natural chain, so the tag may have been kept; also called SufE-(His)6; source: E. coli BL21 DE3, plasmid pET15b, purified (previously published procedures)
# B2: CyaY, the frataxin homolog of Escherichia coli (natural protein, E. coli, UniProt P27838 1-106, looked up)
# chain: MNDSEFHRLADQLWLTIEERLDDWDGDSDIDCEINGGVLTITFENGSKIIINRQEPLHQVWLATKQGGYHFDLKGDEWICDRSGETFWDLLEQAATQQAGETVSFR
# notes: CyaY, frataxin homolog of E. coli; Two plasmids are named (pET15b or pMB10); also called CyaY-(His)6; source: E. coli BL21 DE3, plasmid pET15b or pMB10, purified, (His)6-tag cleaved with thrombin
# B3: SufS, cysteine desulfurase of the SUF system (enzyme, E. coli, UniProt P77444 1-406, looked up)
# chain: T1 sequence (looked up) 1
# notes: SufS, L-cysteine desulfurase of E. coli; Seen by native MS as a dimer with associated PLP cofactors (89 956 Da; predicted 89 892 Da + (S0)2); Surmise: the predicted mass is larger than two natural chains plus two PLP, so a few residues may be left on each chain after thrombin cleavage; also called (SufS)2; dimeric SufS; source: E. coli BL21 DE3, plasmid pSL213, purified, (His)6-tag cleaved with …
# Experiments:
# [1] = molecular target: B3; experiment: native MS; SufS (~8 uM, ~4 uM dimer) titrated with SufE; 250 mM ammonium acetate pH 8; relative intensities fitted to a sequential binding model (Dynafit); conditions: both partners purified
# [2] = molecular target: T1, SufSE complex (SufS dimer with bound …); experiment: native MS; pre-formed SufSE complexes treated with a 4-fold excess of CyaY and titrated with CyaY up to about 35 uM; 250 mM ammonium acetate pH 8; only the first part of the titration measured, Kd an approximation; conditions: both partners purified
# [3] = molecular target: T2, IscS, cysteine desulfurase of the ISC system (E. coli, UniProt P0A6B7 1-404); experiment: native MS; IscS (8 uM, 4 uM dimer) pre-treated with 0.5 equivalents of TusA (4 uM), then titrated with CyaY; 250 mM ammonium acetate pH 8; relative intensities fitted to a simple competition binding model (Dynafit); conditions: both partners purified
# T2 construct: IscS, L-cysteine desulfurase of E. coli; Seen by native MS as a dimer with associated PLP cofactors (90 662 Da; predicted 90 642 Da + Na); No tag is named for this construct; Surmise: the predicted mass fits two untagged whole chains plus two PLP; also called (IscS)2; dimeric IscS; source: E. coli BL21 DE3, plasmid pSL209, purified (previously published procedures)
# [4] = molecular target: the molecule itself; experiment: native MS; desulfurase alone, ~8 uM (~4 uM dimer), 250 mM ammonium acetate pH 8.0, deconvoluted spectrum
binder,measurement,setting,value
B1,Kd of the first and second SufE on the SufS dimer (high affinity site),[1],~8 µM
same,Kd of the third and fourth SufE on the SufS dimer (low affinity site),[1],~71 µM
same,stoichiometry N,[1],≤ 4 per SufS dimer
B2,Kd,[2],~70 µM
same,Kd,[3],~26 µM
same,stoichiometry N,[3],≤ 2 per IscS dimer
B3,stoichiometry N,[4],2
